6 molecules from patent US20050124549A1 (ADMINISTRATORS OF THE TULANE EDUCATIONAL FUND, published 2005) can be followed below.

The target in assay [1] is T1, human somatostatin receptor subtype 2 (human, UniProt P30874 1-369).
T1 construct: whole, on cells; also called SSTR2; SSTR-2
The assay can be described thus: cell-based or functional assay.

Assay [2] addresses T1, human somatostatin receptor subtype 2. Nature of the assay: radioligand displacement, CHO-K1 membranes expressing human SSTR2; competitor [125I]MK-678. The method, then: (§1) Specificity and selectivity of the analogues were determined by Radioligand Binding Assay on CHO-K1 cells stably transfected with each of the SSTR subtypes, as follows.
(§2) Membranes for in vitro receptor binding assays were obtained by homogenizing the CHO-K1 cells expressing the SSTR's subtypes in ice-cold 50 mM Tris-HCl and centrifuging twice at 39000 g (10 min), with an intermediate resuspension in fresh buffer. The final pellets were resuspended in 10 mM Tris-HCl for assay. […] The final assay volume was 0.3 ml. […] The incubations were terminated by rapid filtration through GF/C filters (pre-soaked in 0.3% polyethylenimine) using a Brandel filtration manifold. Each tube and filter were then washed three times with 5 ml aliquots of ice-cold buffer.
In general terms: Displacement assays read how much labelled ligand stays bound in the presence of the test substance.

Assay [3] concerns the target T2, human somatostatin receptor subtype 1 (human, UniProt P30872 1-391).
T2 construct: whole, on cells; Membrane preparations of transfected CHO-K1 cells; also called SSTR1; SSTR-1
Nature of the assay: radioligand displacement, CHO-K1 membranes expressing human SSTR1; competitor [125I-Tyr11]SS-14. How it is done: as §1, §2

The target in assay [4] is T3, human somatostatin receptor subtype 3 (human, UniProt P32745 1-418).
T3 construct: whole, on cells; Membrane preparations of transfected CHO-K1 cells; also called SSTR3; SSTR-3
T3 sequence (P32745 whole entry): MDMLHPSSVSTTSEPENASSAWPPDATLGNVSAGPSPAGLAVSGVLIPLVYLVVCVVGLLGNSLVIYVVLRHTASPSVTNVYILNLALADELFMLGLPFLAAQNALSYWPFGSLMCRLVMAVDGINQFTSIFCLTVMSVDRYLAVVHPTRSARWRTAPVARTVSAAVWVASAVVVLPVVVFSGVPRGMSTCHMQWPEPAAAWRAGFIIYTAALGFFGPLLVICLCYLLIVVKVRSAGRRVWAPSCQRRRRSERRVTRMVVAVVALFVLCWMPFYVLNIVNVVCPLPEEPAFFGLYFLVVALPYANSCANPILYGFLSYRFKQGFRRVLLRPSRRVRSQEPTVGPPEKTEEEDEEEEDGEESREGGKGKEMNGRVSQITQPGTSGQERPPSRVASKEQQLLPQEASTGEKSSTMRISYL
Nature of the assay: radioligand displacement, CHO-K1 membranes expressing human SSTR3; competitor [125I-Tyr11]SS-14. How it is done:
as §1, §2

For assay [5], the target named is T4, human somatostatin receptor subtype 5 (human, UniProt P35346 1-364).
T4 construct: whole, on cells; also called SSTR5; SSTR-5
T4 sequence (P35346 whole entry): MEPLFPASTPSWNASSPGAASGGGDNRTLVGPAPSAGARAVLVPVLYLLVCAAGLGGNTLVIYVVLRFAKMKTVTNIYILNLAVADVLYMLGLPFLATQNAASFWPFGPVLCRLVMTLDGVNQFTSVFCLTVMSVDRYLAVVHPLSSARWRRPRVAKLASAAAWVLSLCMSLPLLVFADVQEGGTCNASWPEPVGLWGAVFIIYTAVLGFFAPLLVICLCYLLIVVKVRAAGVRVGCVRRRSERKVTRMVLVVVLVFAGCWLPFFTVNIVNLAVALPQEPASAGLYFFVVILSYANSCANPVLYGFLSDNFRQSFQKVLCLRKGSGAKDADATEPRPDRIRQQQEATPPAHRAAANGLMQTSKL
The assay can be described thus: radioligand displacement, CHO-K1 membranes expressing human SSTR5; competitor [125I-Tyr11]SS-14. The method, then: as §1, §2

Assay [6] addresses human somatostatin receptor subtype 4 (human) (UniProt P31391). The assay can be described thus: radioligand displacement, CHO-K1 membranes expressing human SSTR4; competitor [125I-Tyr11]SS-14.

Where no end group is shown, it is not given here. [ ]: non-standard residue; d: D form.

T2 sequence (P30872 whole entry): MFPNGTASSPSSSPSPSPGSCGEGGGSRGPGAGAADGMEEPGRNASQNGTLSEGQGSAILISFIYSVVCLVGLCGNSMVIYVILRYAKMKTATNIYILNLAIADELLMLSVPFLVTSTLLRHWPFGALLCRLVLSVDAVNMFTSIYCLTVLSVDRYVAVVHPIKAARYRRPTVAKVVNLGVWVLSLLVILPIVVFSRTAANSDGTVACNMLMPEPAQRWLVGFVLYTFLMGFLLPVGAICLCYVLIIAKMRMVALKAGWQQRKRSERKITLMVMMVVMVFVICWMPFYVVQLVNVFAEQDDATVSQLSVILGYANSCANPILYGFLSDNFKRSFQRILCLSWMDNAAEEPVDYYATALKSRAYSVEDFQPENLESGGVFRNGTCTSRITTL
T1 sequence (P30874 whole entry): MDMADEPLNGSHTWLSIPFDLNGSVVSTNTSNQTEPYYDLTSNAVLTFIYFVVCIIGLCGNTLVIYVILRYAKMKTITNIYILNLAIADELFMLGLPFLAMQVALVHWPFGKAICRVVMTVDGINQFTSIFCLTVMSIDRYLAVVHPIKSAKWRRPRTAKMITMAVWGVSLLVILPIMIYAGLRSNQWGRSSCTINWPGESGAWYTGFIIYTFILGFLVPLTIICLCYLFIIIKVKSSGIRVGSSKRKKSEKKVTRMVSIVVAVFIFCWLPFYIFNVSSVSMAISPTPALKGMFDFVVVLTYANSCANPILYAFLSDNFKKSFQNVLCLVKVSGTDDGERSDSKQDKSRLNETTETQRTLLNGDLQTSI
human somatostatin receptor subtype 4 (human), sequence (P31391 whole entry): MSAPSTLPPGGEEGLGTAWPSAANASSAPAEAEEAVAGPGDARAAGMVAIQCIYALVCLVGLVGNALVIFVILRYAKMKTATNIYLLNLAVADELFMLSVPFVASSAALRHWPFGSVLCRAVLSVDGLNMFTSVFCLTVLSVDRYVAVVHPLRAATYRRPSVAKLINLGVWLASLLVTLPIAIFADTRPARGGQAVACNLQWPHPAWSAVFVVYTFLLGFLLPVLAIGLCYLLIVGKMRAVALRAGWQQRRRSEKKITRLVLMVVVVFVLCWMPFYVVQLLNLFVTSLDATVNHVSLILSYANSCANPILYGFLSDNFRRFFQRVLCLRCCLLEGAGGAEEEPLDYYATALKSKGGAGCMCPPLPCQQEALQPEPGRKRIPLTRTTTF

Consider “Compound 3: 4-(2-Hydroxyethyl)-1-piperazinylacetyl-D-Phe-cyclo(Cys-Tyr-D-Trp-Lys-Abu-Cys)-Thr-NH2 (peptide)”, for which, in assay [1], the change of [^3H]thy incorporation in TT cells at 10^-9 M was -17%. Besides, the IC50 (commonly the concentration that inhibits the measured activity by half) in assay [2] was found to be 0.35 nM; in assay [3], 5210 nM.

“Compound 6: Cpa-cyclo(D-Cys-4-Pal-D-Trp-Lys-Thr-Cys)-Nal-NH2 (peptide)”: the IC50 in assay [2] stood at 6.4 nM; in assay [3] it was 2760 nM; in assay [4], 44 nM; in assay [5], 86.5 nM.

“Compound 4: 4-(2-Hydroxyethyl)-1-piperazine-2-ethanesulfonyl-D-Phe-cyclo(Cys-Tyr-D-Trp-Lys-Abu-Cys)-Thr-NH2 (peptide)”: the change of [^3H]thy incorporation in TT cells at 10^-9 M in assay [1] is -13%.

In the case of “Compound 2: cyclo[Tic-Tyr-D-Trp-Lys-Abu-Phe] (peptide)”, the suppression of [^3H]thy incorporation in TT cells, 10^-9 to 10^-7 M in assay [1] fell in the range of 23 to 58%. Also, the half-maximal inhibitory concentration (IC50) was 1000 nM in assay [6]; 0.34 nM in assay [2]; 1000 nM in assay [3]; 412 nM in assay [4]; 214 nM in assay [5].

B1: Compound 5: D-Phe-Phe-Trp-D-Trp-Lys-Thr-Phe-Thr-NH2 (peptide)
peptide: [dF]FW[dW]KTFT-NH2
notes: also called SSTR5 preferential agonist; SSTR5 selective agonist
In the case of B1, the IC50 in assay [2] was 166 nM; in assay [3], 1150 nM; in assay [4] it was 1000 nM; in assay [5], 2.4 nM.

B2: Compound 1: D-Nal-cyclo[Cys-Tyr-D-Trp-Lys-Val-Cys]-Thr-NH2 (peptide)
peptide: XCYXKVCT
modifications: not fully specified; D-Nal at position 1; D-Trp at position 4; cyclo (disulfide) Cys2-Cys7; C-terminal amide
notes: also called SSTR2 preferential agonist
Take B2: the values for the IC50 in assay [2], in assay [3] and in assay [4] were 0.75 nM, 2130 nM and 98 nM, respectively.
